Data from patent publication US20170137467A1 (CHROMOTEK, published 2017).
Square brackets hold non-standard residues; d marks the D form. GABA = NCCCC(=O)O

Key:
Assay in all cases: peptide library pulldown on immobilized Nb, LC-MS of supernatant; ratio vs GFP-Nb control (1 = not captured, 0 = captured)
[1] = target: T1, BC2T Q11A library peptide (human)
T1 peptide: Ac-PDRKAAVSHWAQ-NH2
Procedure, shortened: (§1)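 Unbound peptide left in supernatant after 1 h pulldown in PBS/0.01% CHAPS measured by reversed-phase LC-MS (8–30% eluent B gradient, 20 min).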

[2] = target: T2, BC2T Q11(I/L) library peptide, version 2 (N-terminal acetyl, C-terminal amide)
T2 construct: Ile and Leu versions are isobaric; two versions resolved but not assigned; also called I/L2
Procedure, shortened: as §1

[3] = target: T3, BC2T S8C* library peptide (human, also: Abu described as gamma-amino butyric acid)
T3 construct: also called BC2TS8X: C*; C(Abu)
T3 peptide: Ac-PDRKAAV[GABA]HWQQ-NH2
Procedure, shortened: as §1

[4] = target: T4, BC2T W10R library peptide (human)
T4 construct: also called BC2TW10X: R
T4 peptide: Ac-PDRKAAVSHRQQ-NH2
Procedure, shortened: as §1

[5] = target: T5, BC2T W10D library peptide (human)
T5 construct: also called BC2TW10X: D
T5 peptide: Ac-PDRKAAVSHDQQ-NH2
Procedure, shortened: as §1

[6] = target: T6, BC2T Q11T library peptide (human)
T6 peptide: Ac-PDRKAAVSHWTQ-NH2
Procedure, shortened: as §1

BC2T H9F library peptide = target: T7, BC2T H9F library peptide (human)
T7 peptide: Ac-PDRKAAVSFWQQ-NH2
Procedure, shortened: as §1

BC2T S8R library peptide = target: T8, BC2T S8R library peptide (human)
T8 construct: also called BC2TS8X: R
T8 peptide: Ac-PDRKAAVRHWQQ-NH2
Procedure, shortened: as §1

BC2T H9E library peptide = target: T9, BC2T H9E library peptide (human)
T9 peptide: Ac-PDRKAAVSEWQQ-NH2
Procedure, shortened: as §1

[7] = target: T10, BC2T Q12K library peptide (human)
T10 peptide: Ac-PDRKAAVSHWQK-NH2
Procedure, shortened: as §1

BC2T H9S library peptide = target: T11, BC2T H9S library peptide (human)
T11 peptide: Ac-PDRKAAVSSWQQ-NH2
Procedure, shortened: as §1

BC2T S8Y library peptide = target: T12, BC2T S8Y library peptide (human)
T12 construct: also called BC2TS8X: Y
T12 peptide: Ac-PDRKAAVYHWQQ-NH2
Procedure, shortened: as §1

BC2T H9T library peptide = target: T13, BC2T H9T library peptide (human)
T13 peptide: Ac-PDRKAAVSTWQQ-NH2
Procedure, shortened: as §1

[8] = target: T14, BC2T W10F library peptide (human)
T14 construct: also called BC2TW10X: F
T14 peptide: Ac-PDRKAAVSHFQQ-NH2
Procedure, shortened: as §1

[9] = target: T15, BC2T Q12R library peptide (human)
T15 peptide: Ac-PDRKAAVSHWQR-NH2
Procedure, shortened: as §1

[10] = target: T16, BC2T W10M library peptide (human)
T16 construct: also called BC2TW10X: M
T16 peptide: Ac-PDRKAAVSHMQQ-NH2
Procedure, shortened: as §1

[11] = target: T17, BC2T Q12T library peptide (human)
T17 peptide: Ac-PDRKAAVSHWQT-NH2
Procedure, shortened: as §1

BC2T H9V library peptide = target: T18, BC2T H9V library peptide (human)
T18 peptide: Ac-PDRKAAVSVWQQ-NH2
Procedure, shortened: as §1

[12] = target: T19, BC2T W10H library peptide (human)
T19 construct: also called BC2TW10X: H
T19 peptide: Ac-PDRKAAVSHHQQ-NH2
Procedure, shortened: as §1

[13] = target: T20, BC2T Q11R library peptide (human)
T20 peptide: Ac-PDRKAAVSHWRQ-NH2
Procedure, shortened: as §1

ratio [1]: 0.3
ratio [2]: 0.4
ratio [3]: 0.1
ratio [4]: 1.3
ratio [5]: 1.1
ratio [6]: 0.2
ratio (BC2T H9F library peptide): 0.2
ratio (BC2T S8R library peptide): 0.9
ratio (BC2T H9E library peptide): 0.5
ratio [7]: 0
ratio (BC2T H9S library peptide): 0.4
ratio (BC2T S8Y library peptide): 0.9
ratio (BC2T H9T library peptide): 0.4
ratio [8]: 1
ratio [9]: 0
ratio [10]: 1.1
ratio [11]: 0.1
ratio (BC2T H9V library peptide): 0.5
ratio [12]: 1.2
ratio [13]: 0.1
B1: BC2-Nb(R106E) (VHH)
VHH: QVQLVESGGGLVQPGGSLTLSCTASGFTLDHYDIGWFRQAPGKEREGVSCINNSDDDTYYADSVKGRFTIFMDNAKDTVYLQMNSLKPEDTAIYYCAEARGCKRGEYEYDFWGQGTQVTVSS
notes: Headlock mutant; immobilized on beads in the library pulldown
